From the DeepSol protein solubility set come the findings set out here.

The data set can be described thus: soluble on expression in E. coli; label from the status in PepcDB or PDB records.
For “MPDSSQLVIGAGLDGLPIAQAMRLANRHGLVAGATGTGKTVTLQRLAEAFSDAGVAVFAADIKGDLCGLGAAGNPQGKVAERIAGMPWLKHQPQAYPVTLWDIHGQSGHPLRTTLSEMGPLLLGSLLELTDSQQSALYAAFKVADREGLLLLDLKDLKALLNHLKDNPQLLGDDAALMTTGSSQALLRRLATLEQQGAEALFGEPALQLEDILQPAADGRGRIHLLDASRLVHEAPKVYATFLLWLLAELFEQLPERGDADKPLLALFFDEAHLLFAGTPKALQDRLEQVVRLIRSKGVGVYFVTQSPGDLPDNVLAQLGLRIQHGLRAFTAKEQKSLRAVADGFRPNPAFDAQAVLTELGIGEALVGTLQDKGTPEMVQRVLVAPPQSRIGPLTEAERQALIASSPLLGRYDKPIDRESAYEVLLGRKELAPQDQQPSGKAAAEEPSLADRAGEFLGTAAGQALKSAMRQAANQLGRQLVRGLMGSLLGGSKRR”, the “soluble on expression in E. coli” value is “soluble”.
As for “PSEHLEHLFQYIVNDDKTYMKKLVSGHGIVDPTNPYEEFKLTKLQAAIQRKIGYTFDPKSERLLPPTLTELEKGNAVLAHHLIQSFSPEDDLTPEKIHEIGYNTVMELTGGEYEFVIATHVDKEHLHNHIIFSSTNLKTGKAFRWQKGTKKVFEQISDKIAAKEGAKIIEKSPKQTHTKYTKWQTESIYKQKIKSRLDFLLEQSSSINDFLEKAEALNLSADFSNKWTTYRLLDEPQIKNTRSRSLSKSDPTRYNYEKIIERLKENKNVL”, the “soluble on expression in E. coli” value is given as “not soluble”.
As to “MGSDKIHHHHHHMSADIVFDRGSPSDIDEIKTFTSNTWKVGYYTDLYSKLADTGTMDDYVDKVIERWVNDGSVYVLRVSGRPVATIHMEKLPDGSVMLGGLRVHPEYRGSRLGMSIMQETIQFLRGKTERLRSAVYSWNEPSLRLVHRLGFHQVEEYPIYTFQGGSTAVPALKPVNERYAGRWRCFFIDWKYMCSDDPDIIHEEYSNNLIVDGSTFVYFDIYEGGIDLFVNDSDDASSFIEKYRSMNGRITFYVRKALANGLPYVPASSLTVWEYRY”, the “soluble on expression in E. coli” value is on record as “not soluble”.
For the sequence “MSLMSSKPIYKRVLLKASGEALMGDQGFGIDVAVADRIASDIAEARAMGVEVGVVVGGGNIFRGVAVASKGGDRVTGDHMGMLATVINALALATSLRKLSIDTVVLSAIAMPEICESFSQRAALHHLAQGRVVIFAGGTGNPFFTTDSAAALRAAEMGAEAIFKGTQVDGIYSADPKKDPTATRFDELTHSEVLGKGLAVMDIAAVALARENHIPIIVFSIHEKGGFAQILTGGGRKTIVHDKEGHHHHHH”, the “soluble on expression in E. coli” value was “soluble”.
In the case of “MGSDKIHHHHHHMAKKLFDYQLDETVDGYFLLKDSEVRIAKNGKKFLAINFQDTSGEISGKFWDASDTDVENFQAGRIVHLKGKRENYQGNPQIKIQQMRLTHSGEPQEVQQFVEHAPLKTDTMADEINQFVFEITEPNWNRIVRHMLTTFHDRFFSYPAAKKNHHAFAGGLAYHTLSILRLAKAVADQYPHVNRALLYAGAILHDMGKTIEMSGPVSTTYTLAGNLVGHIVLIDEQIVETCQQLKIDEQSESVLVLRHTILAHHGLLEYGSPVRPHIMEAEILHDLDELDASIQMMQTSLGHAEPGTYTERIFAMDGRNFYRPTGDQTKGELPDEQN”, the “soluble on expression in E. coli” value is given as “not soluble”.
The same measure for “MHSHLIPGIDDGSKSMEESLSLIQEFKKLGYKKIITTPHIMGDFFKNSKETIFPGLIELRASIAEAGIDIEIEAAAEYYLDEWFIEKLERNEPLLKLGGNYVLFETSYMNRPTQLHQAIFLMRSLGYIPVLAHPERYTYLYEDFKLFKEIYEMDVLFQINLNSLAGYYSKTAKLYAEKLIDNNMVDFVGTDCHGQRHIDVLAKVKVSNYYQKLQKLSILNNTLIS”: “not soluble”; for “MGSDKIHHHHHHMSEQNLIEVRDLAVEFVTGDQVNRVVDGVSFDIRKGETLALVGESGSGKSVTAHSILRLLPYPLARHPSGSIRYEGKDLLQQSEKTLQRIRGNRIAMIFQEPMTSLNPLHCIEKQINEILLLHKGLTGKEATARTLELLDMVGIPEPRKRLKALPHELSGGQRQRVMIAMALANEPELLIADEPTTALDVTVQLKILELLKELQARMGMALLLISHDLNLVRRIAHRVCVMQRGQIVEQAECATLFSSPQHHYTQMLINAEPSGLPAHNPVGAPLLEVDDLKVWFPIKKGFLQRTVDHVKAVDGVNFSLPQGQTLGIVGESGSGKSTLGLAILRLISSQGGIRFHGQNLEGLNQKAVRPLRREMQVVFQDPFGSLSPRMCVADIVGEGLRIHRIGTAQEQEAAIIAALEEVGLDPRTRHRYPHEFSGGQRQRIAIARALVLKPALILLDEPTSALDRTVQRQVVELLRNLQQKYNLTYLFISHDLAVVKALSHQLMVIKHGHVVEQGDAQAIFHAPQHPYTRQLLEAAFLEVGG”: “not soluble”.
The value for “MGHHHHHHSHMTLEELVACDNAAQKMQTVTAAVEELLVAAQRQDRLTVGVYESAKLMNVDPDSVVLCLLAIDEEEEDDIALQIHFTLIQSFCCDNDINIVRVSGNARLAQLLGEPAETQGTTEARDLHCLPFLQNPHTDAWKSHGLVEVASYCEESRGNNQWVPYISLQER” was “soluble”; that for “SLNQDEKRTFRLEKEQELRFEVSNENKVYLTLQSGTAEVFGIELPKKKPVELCDTKLAVFTWQGCELQLQGITDLEYVANETPMHLYLKAHYLLDSMRRKARQQGTKGPKVVIVGPQDSGKSSLCQILSCYAMKGGKKILYASIDFQQGSFSIPGAIGASSVEHVTIEDGMIFENNLVYFYGHTVASENPRLLEKLVSNLSNLLDAKLEDSEMDLGHMGFIADSFGSLDGSNYDVLKQVLKEIKANVIIVLGSERLYADIQRDLCSEQRQIIQLPKSGGVVGRDQYLRRRLQEMQLRCYFYGSDGNLNPFTTVVTFDQVHIVRVGIGLHVPATALPLGAQSTLDPLQISQVTPSTELLHCMLGVSQAEEEEQIVDSPVYGFVHVAKVDISKRTISLLAPSPGKLPGSFLVMGSIRWLE” was “soluble”.
The value for “MFVLPVRFERSPRLHPMLSESPHPVGTRVVVQGKRGPEIATVRGEASEPERQARYGAVLRAATPEDLATWEDLHRRAEDLKWLLRARARERGLPVKLVAVEFTLDESLVTISYSADERIELSSLIGELRAHTRARVNFAAIGPREQAQMLGTLGACGRENCSSTHLQDFAPVSIRMARDQQLPLNPEKLSGPCGRLLCCLQYEHEQYLDLLRDLPRKNAKMCHEGSGACGKVTKLHPLAGTVDLQTDQGLLQDVPASELRRLPEQAAARSPRREPREAPASTDLEHHHHHH” was “soluble”.
On to “MSLSTHYHAHKPNVPIIMEDVFGWVREGNAFQVRVWLDDHEHDLNVGDDHAFSLLHWAAKGGHVAIAEMLLSRGARVNSTNMGDDTSLHLAAAHGHRQIVVKLLSRKADVNATNEHGMTPLHYACFWGYEQIAEDLISCGAAVNVCNKKGMTPLDVCQPMCKNTILEIAQEHGQSPNDRVPFKDTTWKGTKSRTRDATLSRYTGVDVSSLNLITKIAESHSGELWRGKWQGNDIVARILNVQEVTARISRDFQTEFPALRIFAHPNICAVLAAANQPPNLVIISQYMPFGSLYNVLHEQSSVVIDHGQAVRFALDIARGMSYLHSLDPMLLRFYLSSKHVVVDEELTAKLSMADTKFSFQEVGKAYSPAWMSPEALSRAPEDLNIRAADMWSFAILLWELNTREVPFSDLPPMECGMKIALEGLRVHIPPGIARNMNRLMNICMNEDPGRRPNFDQIIPILERMIL”, for which the “soluble on expression in E. coli” value was “not soluble”.
The value for “MAHHHHHHMGGAIYNAVNIAEIVKRRIAGLHQITELGSELVRDEYEPIDRTQNPENVVVERKVSTILITLSRNCLDKSNPGYQEPIADSEVTEQERRDPNMSRRGGRGGIRGGRGGSRGGRGGSRGGRGGSRGGRGVAAIDRRDDREN” was “not soluble”; that for “VPVQLADLKEVRIAYQSIGSESDPALLLVMGLGGQLIHWPDEVVVALCQQGYRVIRYDNRDVGLSTWVQQPADANLTVEVLRYKLGLPVSSPYSLTDMADDALGLMDALQIRQFHVLGASMGGMIAQHLADLAPSRVESLTLIMTSSGAQGLPMPNAALLQLLARRGAPDREVALEQQADLLAALGSPQVKDDREQLLHQAAVSYDRAFNPEGVKRQIMAILAEPSRVELLNRLRLPVLVVHGTADPLLPVMHGVHVAAHIQGSQLRLIPGLAHRFQEAFKAPLLGAVLPYLKA” was “not soluble”; that for “MKIKEVRITGFRSYKDNTNVSGFSPRSNVVVGRNGSGKSNFFHAIQFVLSDEYAHLKEEQRLGLLHESTGPKVAHARVEITFDNSEKRLMAFENSEVKIVRQVGKKKDQYYIDNKMVPRAEVVNLMESAGFSRSNPYYIVKQGKINELATSPDAYKLKLLREVAGTRVYDERKEESLKILKETKMKTEKIQGLLKYIDERLQTLENEKEDLKEYQKLDKTKRSVEYTMYDNTNKEAIKEKTKLDEQKVELNQKDNNVKSQLNDVIAEMAKLKTDKKKLESLGRGLREDKETLQAEETKMVEEKMTLKLEIDSLNEENTRERQGRQNAEHSLQGVGDEIFKNEEELDTIKPEYAKLLEEESRLKTDIRIDESRAKEILAKQGQRSQFSSVDDRDKFLRNEIRRISGLIADNKEREETIQKELADVEREDEKLNNEIQSISRTIDENRYEMDTFAAKSTSLKQEYDAAYVAQQTAAREEKAIRDKIGNTEQDISAANDQLRRIVARPVYNGITGVRKVIEEFKHDNRNGQHDDVINGYYGTVIELAEVPDMFRTAVEVIAQNRLFYHVVETDRIATKILRKFNEMQLPGEINFFPMNRVSAPRQRDLSNNSNARPMSDVIDYEVQYDKVFKSITANVIIVRTLDQAARDLRNEGFDVVSVDGDQMSKKGVMTGGFIDKKRSKLELHTQKDRFTKELAELQKSLAEAEKMVRERTQEAEKIRNRMQQHENQIGDFHRKHRELTEAKNAISQQFYMVTSTKEPKKDQLLGIKNHLRELLAQKENFEQEIGSNMSSQLTSDEEQTVKKLRKKVDEMTKQLATVSRRRMDLMHRKNAIENLLTKKLYKTKESLTAKNPKFFLQRVDDISDNERRHKLENANAQLTSLLTRMESTRKQLATAISELQDYETKEKALQINIDNVLEQQRDLEKQQADFQLQYDKITAKEDEVKQKREDSLKKLILSRYSIKTRKNQFSYEISDSEEVGAKREPIEHRKLKISTFCLEYRAKLEKVHSNMRLLGALPTDTFSKWQNVKPRELEKKLLECVNELKKYENVNKKALDQYMTASSQKEELTKRMAEQKKSEDSIEELLKVLENRKYEAIDLTFKQVKKNFEQVFKQLVPHGRGKMQMRAREQRDDEEGINSVELYEGISVLVSFVSDDGDSETREMTQLSGGQKSLVALAIIFSIQKCDPAPFYLFDEIDAALDAQHRKSVADMIQSLSDQAQFVTTTFRPELLATAEKFYGVRFRNKVSHIDSVTREQAYDFVEDDTTHG” was “not soluble”.
Consider “MTYCLGIVTQAGLIMAADSRTNAGIDYISTYQKLFDFSLPGDRTIVICCSGNLSITQAVLSQLRRDLAGHFDINLHSLPTMYDLARYLGQKVRQLQESDRDWLKQDGIDFYCNFLLGGQIRGGPIELYLVYGQGNCIHATPETPYLQIGETKYGKPILDRTISFDTSLDMAAKCALMSLDSTMRSNLSVGPPLNLARYERDSLVAPMLVQFPAGHEYLVEMRRRWEISLKDAFMRLPDIDWSRQLMRSLSPVSESVP”, for which the “soluble on expression in E. coli” value is given as “not soluble”.
The value for “MSLDSIVNAYEESDVLDPRTDAERPSVPPVIKPVDLGPVHVETPVVLSPMAGVTNWPFRVICESYGPDGLYVAEMITARALVARNPKALRLCRFAPSEKIRSLQLYGVNPSIVEQAAKIVIDENMADHVDLNFGCPVPKVTRRGGGSALPWKTDLFREIIQRVVKVCDAANVPVTAKIRVGIDHEHETFLEAGHIAQEEGCKAVTLHARTTAEYYGGHSDWSRIGELVSELDIPVFGNGDIWGANDALAMVAETGCAGVAIGRGCQGRPWLFADIKNAFAGSDERVDPTLGDVCRVIERHAELLTEFYDEGHHHHHH” was “not soluble”; that for “METYTVKLGSDKGLLVFEPAKLTIKPGDTVEFLNNKVPPHNVVFDAALNPAKSADLAKSLSHKQLLMSPGQSTSTTFPADAPAGEYTFYCEPHRGAGMVGKITVAG” was “soluble”.
